In PMC5646240, “Norovirus Escape from Broadly Neutralizing Antibodies Is Limited to Allostery-Like Mechanisms” (mSphere, 2017):

Assays:
[1] = target: the molecule itself; assay: cryo-EM structure; 2D3 Fab added to purified infectious MNV1 virions; image reconstruction at 8.7 Å (FSC 0.143) / 9.9 Å (FSC 0.5), fitted with atomic models of the P domain dimer and a modelled Fab
[2] = target: murine norovirus WU20 (GV/WU20/2005/USA) virions, capsid protein (Murine norovirus GV/WU20/2005/USA, UniProt A7YJZ8, strain); assay: cell-based or functional assay
[3] = target: murine norovirus MNV4 virions, capsid protein (Murine norovirus, strain MNV4, UniProt Q38J98, strain); assay: cell-based or functional assay
[4] = target: murine norovirus CR6 (GV/CR6/2005/USA) virions, capsid protein (Murine norovirus GV/CR6/2005/USA, UniProt A7YK31, strain); assay: cell-based or functional assay
[5] = target: murine norovirus MNV3 virions, capsid protein (Murine norovirus, strain MNV3, UniProt Q38JA1, strain); assay: cell-based or functional assay
[6] = target: murine norovirus CR1 (GV/CR1/2005/USA) virions, capsid protein (Murine norovirus GV/CR1/2005/USA, UniProt A7YK19, strain); assay: cell-based or functional assay
[7] = target: murine norovirus MNV1.CW3 (GV/MNV1/2002/USA) virions, capsid protein (murine norovirus (MNV1.CW3), UniProt Q80J94); assay: cell-based or functional assay
[8] = target: murine norovirus CR7 (GV/CR7/2005/USA) virions, capsid protein (Murine norovirus GV/CR7/2005/USA, UniProt A7YK34, strain); assay: cell-based or functional assay
[9] = target: murine norovirus CR3 (GV/CR3/2005/USA) virions, capsid protein (Murine norovirus GV/CR3/2005/USA, UniProt A7YK22, strain); assay: cell-based or functional assay
[10] = target: murine norovirus WU11 (GV/WU11/2005/USA) virions, capsid protein (Murine norovirus GV/WU11/2005/USA, UniProt A7YJZ2, strain); assay: cell-based or functional assay
[11] = target: murine norovirus S99 (Berlin/06/06/DE) virions, capsid protein (murine norovirus (strain S99))
[12] = target: T1, human norovirus genogroup I Norwalk virus (NV) virus-like particles (Human norovirus GI, strain of AY502016 …, UniProt Q6EAV2); assay: ELISA; data not shown; HuNoV VLPs (1 µg of each VLP per well in 100 µl PBS, 24 h at 4°C) tested with the MAbs; settings: both partners purified
T1 construct: capsid protein of human norovirus genogroup I strain Norwalk virus, as virus-like particles; also called Norwalk virus VLP; source: provided by Grant Hansman (University of Heidelberg); expressed and purified as previously described (62)

[13] = target: T2, human norovirus GII.10 Vietnam026 virus-like particles (Human norovirus GII.10 Vietnam026, UniProt Q5F4T5, strain); assay: as above; settings: both partners purified
T2 construct: capsid protein of human norovirus GII.10 Vietnam026, as virus-like particles; also called Vietnam026 [GII.10]; source: provided by Grant Hansman (University of Heidelberg); expressed and purified as previously described (62)

[14] = target: T3, human norovirus GII.4 Saga (2006-Saga) virus-like particles (Norovirus Hu/GII-4/Saga1/2006/JP …, UniProt B5BTR4, strain); assay: as above; settings: both partners purified
T3 construct: capsid protein of human norovirus GII.4 Saga (2006), as virus-like particles; also called 2006-Saga [GII.4]; source: provided by Grant Hansman (University of Heidelberg); expressed and purified as previously described (62)

[15] = target: T4, human norovirus GII.12 Hiro virus-like particles (Human norovirus GII.12 Hiro, UniProt Q54AD6, strain); assay: as above; settings: both partners purified
T4 construct: capsid protein of human norovirus GII.12 Hiro, as virus-like particles; also called Hiro [GII.12]; source: provided by Grant Hansman (University of Heidelberg); expressed and purified as previously described (62)

[16] = target: T5, human norovirus GII.4 Sydney (2012-Sydney) virus-like particles (Human norovirus GII.4 …, UniProt K4LM89, strain); assay: as above; settings: both partners purified
T5 construct: capsid protein of human norovirus GII.4 Sydney (2012), as virus-like particles; also called 2012-Sydney [GII.4]; source: provided by Grant Hansman (University of Heidelberg); expressed and purified as previously described (62)

B1: murine norovirus MNV1.CW3 (GV/MNV1/2002/USA) virions, capsid protein (natural protein)
chain: MRMSDGAAPKANGSEASGQDLVPAAVEQAVPIQPVAGAALAAPAAGQINQIDPWIFQNFVQCPLGEFSISPRNTPGEILFDLALGPGLNPYLAHLSAMYTGWVGNMEVQLVLAGNAFTAGKVVVALVPPYFPKGSLTTAQITCFPHVMCDVRTLEPIQLPLLDVRRVLWHATQDQEESMRLVCMLYTPLRTNSPGDESFVVSGRLLSKPAADFNFVYLTPPIERTIYRMVDLPVIQPRLCTHARWPAPVYGLLVDPSLPSNPQWQNGRVHVDGTLLGTTPISGSWVSCFAAEAAYKFQSGTGEVATFTLIEQDGSAYVPGDRAAPLGYPDFSGQLEIEVQTETTKTGDKLKVTTFEMILGPTTNADQAPYQGRVFASVTAAASLDLVDGRVRAVPRSIYGFQDTIPEYNDGLLVPLAPPIGPFLPGEVLLRFRTYMRQIDTADAAAEAIDCALPQEFVSWFASNAFTVQSEALLLRYRNTLTGQLLFECKLYNEGYIALSYSGSGPLTFPTDGIFEVVSWVPRLYQLASVGSLATGRMLKQ
notes: capsid protein (VP1) of murine norovirus 1, strain MNV1.CW3, in whole infectious virions; S domain and P domain; Whole virions with a T=3 capsid; the antigen of the antibodies is the capsid protein; The UniProt entry recalled is of MNV1, not checked for the CW3 clone; also called MVV1; source: RAW 264.7 cells, infected; concentrated virus stock (ELISA); purified virions (ultracentrifugation, …)
binding result [1]: binds

B2: monoclonal antibody 2D3.7 (IgA) (antibody, V domains shown)
VH: VQLQESGPGLVAPSQSLSITCTVSGFSLTSYGVHWIRQPSGKGLEWLGVIWPGGSTNYNSALMSRLSISKDNSQSQVVLKMNSLQTDDSAMYYCARGRVAAWFAYWGQGTLVTVSA
VL: DIVMTQSQKFMSTSVGDRVSVTCTASQNVGTSVAWYLQRPGQSPEALIYSASYRNSGVPDRFTGSGSGTDFTLTISNVQSEDLADYFCQQYNNYPFTFGSGTKLEIK
notes: VH before the CDR3 loop; heavy chain CDR3 loop as printed; nearly identical to the light chain variable domain of PDB 2AEQ; IgA; also called MAb 2D3; IgA MAb 2D3
plaque neutralization assay: 5 × 10^4 PFU with 0 to 1,000 ng MAb, 30 min at 37°C; virus titer relative to no antibody [2]: ≥ 1 log
plaque neutralization assay: 5 × 10^4 PFU with 0 to 1,000 ng MAb, 30 min at 37°C; virus titer relative to no antibody [3]: ≥ 1 log
plaque neutralization assay: 5 × 10^4 PFU with 0 to 1,000 ng MAb, 30 min at 37°C; virus titer relative to no antibody [4]: ≥ 1 log
plaque neutralization assay: 5 × 10^4 PFU with 0 to 1,000 ng MAb, 30 min at 37°C; virus titer relative to no antibody [5]: ≥ 1 log
plaque neutralization assay: 5 × 10^4 PFU with 0 to 1,000 ng MAb, 30 min at 37°C; virus titer relative to no antibody [6]: ≥ 1 log
plaque neutralization assay: 5 × 10^4 PFU with 0 to 1,000 ng MAb, 30 min at 37°C; virus titer relative to no antibody [7]: ≥ 1 log
plaque neutralization assay: 5 × 10^4 PFU with 0 to 1,000 ng MAb, 30 min at 37°C; virus titer relative to no antibody [8]: ≥ 1 log
plaque neutralization assay: 5 × 10^4 PFU with 0 to 1,000 ng MAb, 30 min at 37°C; virus titer relative to no antibody [9]: ≥ 1 log
plaque neutralization assay: 5 × 10^4 PFU with 0 to 1,000 ng MAb, 30 min at 37°C; virus titer relative to no antibody [10]: ≥ 1 log
plaque neutralization assay: 5 × 10^4 PFU with 0 to 1,000 ng MAb, 30 min at 37°C; virus titer relative to no antibody [11]: > 1 log
binding result [12]: no binding
binding result [13]: no binding
binding result [14]: no binding
binding result [15]: no binding
binding result [16]: no binding
